Where a chain is given by its changes, count along the chain named. One block for each binder: values may come before it.
Assays:
[1] = target: T1, J43v2 mIgG2a; assay: bacterial display clone with DyLight 650 labeled J43v2 m2a
T1 construct: also called J43 m2a; J43v2 m2a

[2] = target: T2, human PD-1-Fc (R and D systems, Minneapolis, Minn.) (human, UniProt Q15116 25-167); assay: plate ELISA on human PD-1-Fc; reference A1.5
T2 construct: bought; also called hPD-1-Fc; hPD-1; not shown: Fc part of the bought fusion

[3] = target: T2, human PD-1-Fc (R and D systems, …); assay: plate ELISA on human PD-1-Fc; apparent KD

T2 sequence (Q15116 25-167 limits assumed): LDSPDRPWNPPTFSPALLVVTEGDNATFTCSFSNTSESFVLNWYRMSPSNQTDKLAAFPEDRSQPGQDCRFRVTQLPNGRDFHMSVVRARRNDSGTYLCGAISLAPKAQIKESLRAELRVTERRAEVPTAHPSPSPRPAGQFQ
T1 sequence (VH, as listed by the source, chain 1 of 2): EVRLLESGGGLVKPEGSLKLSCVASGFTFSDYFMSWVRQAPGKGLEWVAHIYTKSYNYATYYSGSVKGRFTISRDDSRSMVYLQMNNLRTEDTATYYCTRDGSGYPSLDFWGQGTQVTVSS
T1 sequence (VL, as listed by the source, chain 2 of 2): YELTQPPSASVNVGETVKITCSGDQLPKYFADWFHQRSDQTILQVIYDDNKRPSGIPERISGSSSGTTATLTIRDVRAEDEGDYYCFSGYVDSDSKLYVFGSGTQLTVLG

B2: PD-1 1.5 PD022 2001 (antibody, human IgG4 S228P, kappa)
heavy: not shown
light: QGQSGQGFYCTYLVSLTCHPQGGGSSGGSISSGLLSGRSDNHGGGSDIQLTQSPSSLSASVGDRVTITCRASESVDAYGISFMNWFQQKPGKAPKLLIYAASNQGSGVPSRFSGSGSGTDFTLTISSMQPEDFATYYCQQSKDVPWTFGQGTKLEIKRTVAAPSVFIFPPSDEQLKSGTASVVCLLNNFYPREAKVQWKVDNALQSGNSQESVTEQDSKDSTYSLSSTLTLSKADYEKHKVYACEVTHQGLSSPVTKSFNRGEC
Masking Efficiency [2]: 23 | Kd [3]: 41 nM

B3: PD-1 1.5 PD015 2001 (antibody, human IgG4 S228P, kappa)
heavy: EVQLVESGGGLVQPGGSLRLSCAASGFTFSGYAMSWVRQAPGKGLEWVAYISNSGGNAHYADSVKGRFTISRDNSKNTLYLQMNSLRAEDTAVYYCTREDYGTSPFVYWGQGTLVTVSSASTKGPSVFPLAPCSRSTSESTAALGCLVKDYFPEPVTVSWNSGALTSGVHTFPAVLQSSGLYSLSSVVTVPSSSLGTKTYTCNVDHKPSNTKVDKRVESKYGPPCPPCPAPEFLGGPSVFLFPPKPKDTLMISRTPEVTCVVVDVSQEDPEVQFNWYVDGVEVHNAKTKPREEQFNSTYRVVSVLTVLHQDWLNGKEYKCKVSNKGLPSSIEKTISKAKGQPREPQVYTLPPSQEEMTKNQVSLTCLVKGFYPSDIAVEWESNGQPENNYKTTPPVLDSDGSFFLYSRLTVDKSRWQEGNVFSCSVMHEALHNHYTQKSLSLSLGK
light: QGQSGQGVSYCTWLIEVTCLRGGGGSSGGSISSGLLSGRSDNHGGGSDIQLTQSPSSLSASVGDRVTITCRASESVDAYGISFMNWFQQKPGKAPKLLIYAASNQGSGVPSRFSGSGSGTDFTLTISSMQPEDFATYYCQQSKDVPWTFGQGTKLEIKRTVAAPSVFIFPPSDEQLKSGTASVVCLLNNFYPREAKVQWKVDNALQSGNSQESVTEQDSKDSTYSLSSTLTLSKADYEKHKVYACEVTHQGLSSPVTKSFNRGEC
Masking Efficiency [2]: 65 | Kd [3]: 117 nM

B7: masking moiety MP006 (peptide)
peptide: VEHLCYTHNKCKHPD
notes: bacterial display clone; also called MP06
binding result [1]: binds

B8: masking moiety MP009 (peptide)
peptide: LIQCTGNLDHKCKHY
notes: bacterial display clone; also called MP09
binding result [1]: binds

B9: PD-1 1.5 PD021 2001 (antibody, human IgG4 S228P, kappa)
heavy: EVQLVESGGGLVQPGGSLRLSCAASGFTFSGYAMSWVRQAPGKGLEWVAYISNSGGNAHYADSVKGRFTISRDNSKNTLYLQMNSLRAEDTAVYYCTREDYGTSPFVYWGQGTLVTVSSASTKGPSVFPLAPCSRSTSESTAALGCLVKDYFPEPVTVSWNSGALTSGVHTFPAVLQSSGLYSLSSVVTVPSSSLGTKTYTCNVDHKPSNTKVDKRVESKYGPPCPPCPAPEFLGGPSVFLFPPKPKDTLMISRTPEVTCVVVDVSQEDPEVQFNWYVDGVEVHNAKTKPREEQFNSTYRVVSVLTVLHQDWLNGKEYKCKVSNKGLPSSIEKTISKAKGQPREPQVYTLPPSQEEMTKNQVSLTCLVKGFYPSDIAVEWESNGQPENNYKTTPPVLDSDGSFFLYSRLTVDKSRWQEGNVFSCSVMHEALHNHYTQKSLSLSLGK
light: QGQSGQGLSVECYVFSRCSSLPGGGSSGGSISSGLLSGRSDNHGGGSDIQLTQSPSSLSASVGDRVTITCRASESVDAYGISFMNWFQQKPGKAPKLLIYAASNQGSGVPSRFSGSGSGTDFTLTISSMQPEDFATYYCQQSKDVPWTFGQGTKLEIKRTVAAPSVFIFPPSDEQLKSGTASVVCLLNNFYPREAKVQWKVDNALQSGNSQESVTEQDSKDSTYSLSSTLTLSKADYEKHKVYACEVTHQGLSSPVTKSFNRGEC
Masking Efficiency [2]: 27 | Kd [3]: 49 nM

B11: masking moiety MP010 (peptide)
peptide: IPCHHSADHKHKCTS
notes: bacterial display clone; also called MP10
binding result [1]: binds

B12: PD-1 1.5 PD005 2001 (antibody, human IgG4 S228P, kappa)
heavy: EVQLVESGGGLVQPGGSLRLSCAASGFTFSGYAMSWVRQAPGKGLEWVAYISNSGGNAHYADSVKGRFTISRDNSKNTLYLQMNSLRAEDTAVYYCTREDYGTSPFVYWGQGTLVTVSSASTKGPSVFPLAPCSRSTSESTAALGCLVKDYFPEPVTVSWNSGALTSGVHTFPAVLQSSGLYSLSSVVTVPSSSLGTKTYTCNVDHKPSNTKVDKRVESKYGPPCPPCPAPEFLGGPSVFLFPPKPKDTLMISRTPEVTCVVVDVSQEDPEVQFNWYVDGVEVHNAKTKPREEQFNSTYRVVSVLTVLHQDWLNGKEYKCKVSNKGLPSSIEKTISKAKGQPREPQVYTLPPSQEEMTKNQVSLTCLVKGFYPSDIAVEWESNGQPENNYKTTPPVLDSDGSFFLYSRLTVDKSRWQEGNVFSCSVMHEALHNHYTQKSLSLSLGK
light: QGQSGQGMLVCSLQPTAMCERVGGGSSGGSISSGLLSGRSDNHGGGSDIQLTQSPSSLSASVGDRVTITCRASESVDAYGISFMNWFQQKPGKAPKLLIYAASNQGSGVPSRFSGSGSGTDFTLTISSMQPEDFATYYCQQSKDVPWTFGQGTKLEIKRTVAAPSVFIFPPSDEQLKSGTASVVCLLNNFYPREAKVQWKVDNALQSGNSQESVTEQDSKDSTYSLSSTLTLSKADYEKHKVYACEVTHQGLSSPVTKSFNRGEC
Masking Efficiency [2]: 38 | Kd [3]: 68 nM

B14: masking moiety MP001 (peptide)
peptide: DYTYCRWVNWCLSGV
notes: bacterial display clone; also called MP01; MP-01
binding result [1]: binds

B16: masking moiety MP003 (peptide)
peptide: TNIWSCQTYCDHKHK
notes: bacterial display clone; also called MP03
binding result [1]: binds

B17: PD-1 1.5 PD010 2001 (antibody, human IgG4 S228P, kappa)
heavy: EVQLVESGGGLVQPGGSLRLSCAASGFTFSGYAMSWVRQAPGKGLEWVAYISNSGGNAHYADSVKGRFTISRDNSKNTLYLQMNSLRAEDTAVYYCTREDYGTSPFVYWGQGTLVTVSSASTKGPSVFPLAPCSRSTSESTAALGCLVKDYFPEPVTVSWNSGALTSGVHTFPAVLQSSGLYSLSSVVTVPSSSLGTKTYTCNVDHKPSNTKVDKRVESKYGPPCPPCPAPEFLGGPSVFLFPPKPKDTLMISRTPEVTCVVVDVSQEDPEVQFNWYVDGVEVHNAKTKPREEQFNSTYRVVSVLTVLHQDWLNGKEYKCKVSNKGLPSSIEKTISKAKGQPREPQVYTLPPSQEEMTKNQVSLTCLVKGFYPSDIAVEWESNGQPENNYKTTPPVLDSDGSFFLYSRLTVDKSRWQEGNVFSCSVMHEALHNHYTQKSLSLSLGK
light: QGQSGQGGLCSWYLSSSGLCVDGGGSSGGSISSGLLSGRSDNHGGGSDIQLTQSPSSLSASVGDRVTITCRASESVDAYGISFMNWFQQKPGKAPKLLIYAASNQGSGVPSRFSGSGSGTDFTLTISSMQPEDFATYYCQQSKDVPWTFGQGTKLEIKRTVAAPSVFIFPPSDEQLKSGTASVVCLLNNFYPREAKVQWKVDNALQSGNSQESVTEQDSKDSTYSLSSTLTLSKADYEKHKVYACEVTHQGLSSPVTKSFNRGEC
Masking Efficiency [2]: 30 | Kd [3]: 54 nM

B18: PD-1 1.5 PD016 2001 (antibody, human IgG4 S228P, kappa)
heavy: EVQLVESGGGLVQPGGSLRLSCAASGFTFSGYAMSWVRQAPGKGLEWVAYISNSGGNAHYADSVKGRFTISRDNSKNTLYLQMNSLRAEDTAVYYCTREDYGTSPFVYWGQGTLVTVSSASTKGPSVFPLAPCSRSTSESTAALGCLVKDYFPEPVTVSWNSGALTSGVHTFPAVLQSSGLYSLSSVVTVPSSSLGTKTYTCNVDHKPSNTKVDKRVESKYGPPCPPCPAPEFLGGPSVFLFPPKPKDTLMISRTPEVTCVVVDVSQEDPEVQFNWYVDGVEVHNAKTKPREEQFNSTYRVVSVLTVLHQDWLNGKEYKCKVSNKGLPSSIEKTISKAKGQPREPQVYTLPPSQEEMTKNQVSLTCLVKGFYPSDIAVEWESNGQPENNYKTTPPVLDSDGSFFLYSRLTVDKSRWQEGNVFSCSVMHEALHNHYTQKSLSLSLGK
light: B17 light with G8V, S11A, W12A, L14A, S15L, L19I, V21G, D22G
Masking Efficiency [2]: 32 | Kd [3]: 57 nM

B19: PD-1 1.5 PD013 2001 (antibody, human IgG4 S228P, kappa)
heavy: not shown
light: B17 light with G8S, L9C, C10P, S11L, W12Y, Y13V, L14M, S17F, L19G, V21W
Masking Efficiency [2]: 84 | Kd [3]: 151 nM

B21: PD-1 1.5 PD023 2001 (antibody, human IgG4 S228P, kappa)
heavy: not shown
light: QGQSGQGSMAGCQWSSFCVQRDGGGSSGGSISSGLLSGRSDNHGGGSDIQLTQSPSSLSASVGDRVTITCRASESVDAYGISFMNWFQQKPGKAPKLLIYAASNQGSGVPSRFSGSGSGTDFTLTISSMQPEDFATYYCQQSKDVPWTFGQGTKLEIKRTVAAPSVFIFPPSDEQLKSGTASVVCLLNNFYPREAKVQWKVDNALQSGNSQESVTEQDSKDSTYSLSSTLTLSKADYEKHKVYACEVTHQGLSSPVTKSFNRGEC
Masking Efficiency [2]: 17 | Kd [3]: 31 nM

B22: PD-1 1.5 PD014 2001 (antibody, human IgG4 S228P, kappa)
heavy: not shown
light: B17 light with G8M, L9S, C10H, S11C, Y13M, L14F, G18C, L19D, C20G, D22K
Masking Efficiency [2]: 56 | Kd [3]: 100 nM

B23: PD-1 1.5 PD003 2001 (antibody, human IgG4 S228P, kappa)
heavy: not shown
light: B17 light with G8L, L9V, S11P, W12L, L14A, S15L, L19V, V21M, D22G
Masking Efficiency [2]: 61 | Kd [3]: 109 nM

B27: masking moiety MP002 (peptide)
peptide: ILCPEDPWGHKCKLP
notes: bacterial display clone; also called MP02; MP-02
binding result [1]: binds

The remaining lines, values ahead:

binding result [1]: binds
B1: masking moiety MP007 (peptide)
peptide: TIPRCGQHPKCKDTL
notes: bacterial display clone; also called MP07

Masking Efficiency [2]: 51 | Kd [3]: 92 nM
B4: PD-1 1.5 PD024 2001 (antibody, human IgG4 S228P, kappa)
heavy: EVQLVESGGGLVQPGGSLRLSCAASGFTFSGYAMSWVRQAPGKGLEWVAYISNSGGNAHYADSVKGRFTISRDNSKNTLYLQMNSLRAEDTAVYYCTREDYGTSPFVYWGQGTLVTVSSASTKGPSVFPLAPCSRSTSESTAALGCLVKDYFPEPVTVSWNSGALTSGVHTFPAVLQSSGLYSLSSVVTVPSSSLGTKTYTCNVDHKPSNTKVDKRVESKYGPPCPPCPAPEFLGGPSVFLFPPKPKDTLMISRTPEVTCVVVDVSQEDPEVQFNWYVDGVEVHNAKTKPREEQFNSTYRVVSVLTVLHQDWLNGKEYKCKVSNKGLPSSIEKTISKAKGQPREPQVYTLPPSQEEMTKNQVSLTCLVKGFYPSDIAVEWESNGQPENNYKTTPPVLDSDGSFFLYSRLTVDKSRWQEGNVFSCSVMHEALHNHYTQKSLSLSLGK
light: QGQSGQGIYSCYMFASRCTSDKGGGSSGGSISSGLLSGRSDNHGGGSDIQLTQSPSSLSASVGDRVTITCRASESVDAYGISFMNWFQQKPGKAPKLLIYAASNQGSGVPSRFSGSGSGTDFTLTISSMQPEDFATYYCQQSKDVPWTFGQGTKLEIKRTVAAPSVFIFPPSDEQLKSGTASVVCLLNNFYPREAKVQWKVDNALQSGNSQESVTEQDSKDSTYSLSSTLTLSKADYEKHKVYACEVTHQGLSSPVTKSFNRGEC

Masking Efficiency [2]: 42 | Kd [3]: 75 nM
B5: PD-1 1.5 PD018 2001 (antibody, human IgG4 S228P, kappa)
heavy: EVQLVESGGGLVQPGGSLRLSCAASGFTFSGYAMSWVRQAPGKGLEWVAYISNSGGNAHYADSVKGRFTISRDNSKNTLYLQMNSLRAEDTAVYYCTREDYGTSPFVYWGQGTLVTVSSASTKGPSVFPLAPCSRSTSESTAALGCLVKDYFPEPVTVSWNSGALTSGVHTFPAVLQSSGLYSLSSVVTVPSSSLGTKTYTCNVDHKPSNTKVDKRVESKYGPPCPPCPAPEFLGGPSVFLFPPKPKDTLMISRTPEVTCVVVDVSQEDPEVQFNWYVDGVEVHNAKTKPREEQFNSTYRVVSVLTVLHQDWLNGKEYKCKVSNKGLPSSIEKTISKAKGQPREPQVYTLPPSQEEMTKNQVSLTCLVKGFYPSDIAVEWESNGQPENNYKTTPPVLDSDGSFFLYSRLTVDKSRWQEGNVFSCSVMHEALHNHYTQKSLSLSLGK
light: B4 light with I8A, Y9P, S10R, R17Y, T19K, D21Q, K22Y

binding result [1]: binds
B6: masking moiety MP005 (peptide)
peptide: PGNCHPMQKEMCQFI
notes: bacterial display clone; also called MP05

Masking Efficiency [2]: 12 | Kd [3]: 21 nM
B10: PD-1 1.5 PD002 2001 (antibody, human IgG4 S228P, kappa)
heavy: not shown
light: QGQSGQGDVNCAIWYSVCTTVPGGGSSGGSISSGLLSGRSDNHGGGSDIQLTQSPSSLSASVGDRVTITCRASESVDAYGISFMNWFQQKPGKAPKLLIYAASNQGSGVPSRFSGSGSGTDFTLTISSMQPEDFATYYCQQSKDVPWTFGQGTKLEIKRTVAAPSVFIFPPSDEQLKSGTASVVCLLNNFYPREAKVQWKVDNALQSGNSQESVTEQDSKDSTYSLSSTLTLSKADYEKHKVYACEVTHQGLSSPVTKSFNRGEC

Masking Efficiency [2]: 37 | Kd [3]: 67 nM
B13: PD-1 1.5 PD011 2001 (antibody, human IgG4 S228P, kappa)
heavy: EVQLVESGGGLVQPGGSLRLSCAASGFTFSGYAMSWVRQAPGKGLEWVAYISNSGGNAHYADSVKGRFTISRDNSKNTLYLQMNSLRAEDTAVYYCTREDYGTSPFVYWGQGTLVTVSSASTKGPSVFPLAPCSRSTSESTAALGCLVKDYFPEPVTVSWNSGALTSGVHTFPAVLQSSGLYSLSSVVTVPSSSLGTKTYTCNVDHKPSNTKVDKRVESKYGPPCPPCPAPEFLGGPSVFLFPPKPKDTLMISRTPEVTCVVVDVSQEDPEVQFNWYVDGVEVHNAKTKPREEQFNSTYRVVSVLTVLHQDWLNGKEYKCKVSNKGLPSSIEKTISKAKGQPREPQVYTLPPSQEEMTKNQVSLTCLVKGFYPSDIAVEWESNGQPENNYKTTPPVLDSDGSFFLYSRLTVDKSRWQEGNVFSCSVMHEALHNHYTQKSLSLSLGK
light: B12 light with M8V, L9P, V10W, S12Q, Q14T, T16R, A17V, E20M, R21W, V22A

binding result [1]: binds
B15: masking moiety MP011 (peptide)
peptide: SRQICADYNCHNKYK
notes: bacterial display clone; also called MP11

Masking Efficiency [2]: 43 | Kd [3]: 77 nM
B20: PD-1 1.5 PD020 2001 (antibody, human IgG4 S228P, kappa)
heavy: not shown
light: B17 light with G8S, L9V, S11P, W12M, L14A, S15L, G18M, V21G, D22A

Masking Efficiency [2]: 31 | Kd [3]: 55 nM
B24: PD-1 1.5 PD008 2001 (antibody, human IgG4 S228P, kappa)
heavy: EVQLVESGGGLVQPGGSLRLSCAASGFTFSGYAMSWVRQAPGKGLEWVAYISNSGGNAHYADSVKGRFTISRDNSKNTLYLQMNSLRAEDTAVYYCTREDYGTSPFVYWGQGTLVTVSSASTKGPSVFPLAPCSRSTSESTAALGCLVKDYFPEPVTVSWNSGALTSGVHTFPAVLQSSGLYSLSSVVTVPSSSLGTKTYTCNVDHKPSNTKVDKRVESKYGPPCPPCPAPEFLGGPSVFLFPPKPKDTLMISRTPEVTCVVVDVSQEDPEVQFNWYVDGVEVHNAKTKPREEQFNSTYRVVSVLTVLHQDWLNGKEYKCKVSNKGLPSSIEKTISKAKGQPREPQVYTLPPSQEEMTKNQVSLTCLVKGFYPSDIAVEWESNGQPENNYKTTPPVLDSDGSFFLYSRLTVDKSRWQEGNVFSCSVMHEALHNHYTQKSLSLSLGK
light: B17 light with G8E, L9T, S11N, W12Q, L14E, S15R, V21F, D22A

Kd [3]: 1.8 nM
B25: A1.5 (antibody, human IgG4 S228P, kappa)
heavy: not shown
light: DIQLTQSPSSLSASVGDRVTITCRASESVDAYGISFMNWFQQKPGKAPKLLIYAASNQGSGVPSRFSGSGSGTDFTLTISSMQPEDFATYYCQQSKDVPWTFGQGTKLEIKRTVAAPSVFIFPPSDEQLKSGTASVVCLLNNFYPREAKVQWKVDNALQSGNSQESVTEQDSKDSTYSLSSTLTLSKADYEKHKVYACEVTHQGLSSPVTKSFNRGEC
notes: humanized, full length hIgG4/hKappa; also called A1.5 Ab

binding result [1]: binds
B26: masking moiety MP008 (peptide)
peptide: ACRICQDHPKTKWNS
notes: bacterial display clone; also called MP08

Masking Efficiency [2]: 193 | Kd [3]: 348 nM
B28: PD-1 1.5 PD01 2001 (antibody, human IgG4 S228P, kappa)
heavy: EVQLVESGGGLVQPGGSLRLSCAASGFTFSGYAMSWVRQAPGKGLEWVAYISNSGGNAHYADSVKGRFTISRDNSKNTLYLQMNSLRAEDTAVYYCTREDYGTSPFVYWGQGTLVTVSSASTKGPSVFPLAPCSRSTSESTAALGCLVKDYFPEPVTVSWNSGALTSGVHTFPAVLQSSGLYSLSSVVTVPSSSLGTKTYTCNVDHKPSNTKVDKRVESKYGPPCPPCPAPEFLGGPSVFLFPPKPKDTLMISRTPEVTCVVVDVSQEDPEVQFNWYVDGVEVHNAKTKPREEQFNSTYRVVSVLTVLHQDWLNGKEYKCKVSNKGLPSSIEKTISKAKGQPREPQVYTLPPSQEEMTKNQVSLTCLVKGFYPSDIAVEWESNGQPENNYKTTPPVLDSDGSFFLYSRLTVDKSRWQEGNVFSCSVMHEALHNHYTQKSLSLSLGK
light: B21 light with S8A, A10S, Q13S, S16A, V19P, Q20Y, R21L, D22A

binding result [1]: binds
B29: masking moiety MP004 (peptide)
peptide: SDHKCKLQNCMNTKV
notes: bacterial display clone; also called MP04

From US20170044259A1 (CYTOMX THERAPEUTICS, published 2017)
